Consider two variants from FireProtDB (doi:10.1074/jbc.m707838200).

Where “and” joins values, the source holds several entries; their conditions need not be identical. Identical values can stand only once.

To fix the notation:
B1: E114Q, Q9EYL5 (parent)
chain: MTKKLLTLFIVSMLILTACGKKESATTSSKNGKPLVVVYGDYKCPYCKELDEKVMPKLRKNYIDNHKVEYQFVNLAFLGKDSIVGSRASHAVLMYAPKSFLDFQKQLFAAQQDENKEWLTKELLDKHIKQLHLDKETENKIIKDYKTKDSKSWKAAEKDKKIAKDNHIKTTPTAFINGEKVEDPYDYESYEKLLKDKIK

In the data set the parent is B1. The following applies: Staphylococcus aureus, pH 7, Thermal, CD, reversible: Yes, structure 3BCI, whole UniProt chain shown; for unfolding free energy: 25 °C, Hepes-NaOH 20 mM, NaCl 170 mM; for Tm / change of melting temperature, mutant - wild type (higher = more stable): Phosphate 100 mM.

On to E114Q, for which the unfolding free energy was determined as 6.13 kcal/mol; the Tm amounted to 74.2 °C; the “change of melting temperature, mutant - wild type (higher = more stable)” value was determined as 2.3 °C.
In the case of T171V, the unfolding free energy was 8.19 kcal/mol and 8.42 kcal/mol; the Tm is 71.8 °C and 73 °C; the “change of melting temperature, mutant - wild type (higher = more stable)” value was -0.7 °C and 1.1 °C.
